# Assay results published in US20220089776A1 (OREGON HEALTH AND SCIENCE UNIVERSITY, published 2022).
# Substitutions are numbered along the chain they refer to. In names and notes the source's numbering stands.
# B1: Chimera (chimeric parental antibody) PP13892 (antibody, human IgG4, V domains shown)
# VH: DVQLQESGPDLVKPSQSLSLTCTVTGYSITSGYSWHWIRQFPGNNLEWMGYIQYSGNTNSNPSLKSRISITRDTSKNQFFLHLNSVTTEDTATYYCARWGSFDYWGQGTTLTVSS
# VL: QIVLTQSPAIMSASPGEKVTMTCSASSSVNYMHWYQQKSGTSPKRWIYDTSKLASGVPARFSGSGSGTSYSLTISSMEAGDAATYYCQQWSGNPPTFGGGTILEIK
# notes: Variable regions of murine AB053 on the same human IgG4 (S241P hinge modified) backbone as the humanized antibodies; also called H7879 + L7879
# B2: humanized 5C12 antibody HC1 + LC1 (PP13893) (antibody, human IgG4 S228P, kappa, V domains shown)
# VH: QVQLQESGPGLVKPSQTLSLTCTVSGYSITSGYSWHWIRQHPGKGLEWIGYIQYSGNTNSNPSLKSRVTISRDTSKNQFSLKLSSVTAADTAVYYCARWGSFDYWGQGTLVTVSS
# VL: EIVLTQSPATLSLSPGERATLSCRASSSVNYLHWYQQKPGQAPRRLIYDTSKLATGIPARFSGSGSGTDYTLTISSLEPEDFAVYYCQQWSGNPPTFGGGTKVEIKR
# notes: Human IgG4 (S241P hinge modified), expressed in HEK293; also called AB054; h5C12
# B3: humanized 5C12 antibody HC1 + LC2 (PP13894) (antibody, human IgG4 S228P, kappa, V domains shown)
# VH: B2 VH
# VL: B2 VL with R44K, L46W
# notes: Human IgG4 (S241P hinge modified), expressed in HEK293; also called H7880 + L7881
# B4: humanized 5C12 antibody HC1 + LC3 (PP13895) (antibody, human IgG4 S228P, kappa, V domains shown)
# VH: B2 VH
# VL: B2 VL with E1D, S7T, R44K, G99Q, K102R, V103L
# notes: Human IgG4 (S241P hinge modified), expressed in HEK293; also called H7880 + L7882
# B5: humanized 5C12 antibody HC2 + LC1 (PP13896) (antibody, human IgG4 S228P, kappa, V domains shown)
# VH: B2 VH with Q1D, S25T, I49M
# VL: B2 VL
# notes: Human IgG4 (S241P hinge modified), expressed in HEK293; also called H7881 + L7880
# B6: humanized 5C12 antibody HC2 + LC2 (PP13897) (antibody, human IgG4 S228P, kappa, V domains shown)
# VH: B2 VH with Q1D, S25T, I49M
# VL: B2 VL with R44K, L46W
# notes: Human IgG4 (S241P hinge modified), expressed in HEK293; also called H7881 + L7881
# B7: humanized 5C12 antibody HC2 + LC3 (PP13898) (antibody, human IgG4 S228P, kappa, V domains shown)
# VH: B2 VH with Q1D, S25T, I49M
# VL: B2 VL with E1D, S7T, R44K, G99Q, K102R, V103L
# notes: Human IgG4 (S241P hinge modified), expressed in HEK293; also called H7881 + L7882
# B8: humanized 5C12 antibody HC3 + LC1 (PP13899) (antibody, human IgG4 S228P, kappa, V domains shown)
# VH: B2 VH with Q1D, Q16E, H41P, K82R, L110M
# VL: B2 VL
# notes: Human IgG4 (S241P hinge modified), expressed in HEK293; also called H7882 + L7880
# B9: humanized 5C12 antibody HC3 + LC2 (PP13900) (antibody, human IgG4 S228P, kappa, V domains shown)
# VH: B2 VH with Q1D, Q16E, H41P, K82R, L110M
# VL: B2 VL with R44K, L46W
# notes: Human IgG4 (S241P hinge modified), expressed in HEK293; also called H7882 + L7881
# B10: humanized 5C12 antibody HC3 + LC3 (PP13901) (antibody, human IgG4 S228P, kappa, V domains shown)
# VH: B2 VH with Q1D, Q16E, H41P, K82R, L110M
# VL: B2 VL with E1D, S7T, R44K, G99Q, K102R, V103L
# notes: Human IgG4 (S241P hinge modified), expressed in HEK293; also called H7882 + L7882
# What was measured:
# [1] = biological target: T1, human blood protein factor XII (FXII) (human, UniProt P00748 20-615); assay: ELISA, human FXII coated at 1 µg/mL, goat anti-human IgG-HRP detection
# T1 construct: mature; Single-chain zymogen as it circulates in plasma; also called human FXII; plasma-derived FXII
# T1 sequence (looked up): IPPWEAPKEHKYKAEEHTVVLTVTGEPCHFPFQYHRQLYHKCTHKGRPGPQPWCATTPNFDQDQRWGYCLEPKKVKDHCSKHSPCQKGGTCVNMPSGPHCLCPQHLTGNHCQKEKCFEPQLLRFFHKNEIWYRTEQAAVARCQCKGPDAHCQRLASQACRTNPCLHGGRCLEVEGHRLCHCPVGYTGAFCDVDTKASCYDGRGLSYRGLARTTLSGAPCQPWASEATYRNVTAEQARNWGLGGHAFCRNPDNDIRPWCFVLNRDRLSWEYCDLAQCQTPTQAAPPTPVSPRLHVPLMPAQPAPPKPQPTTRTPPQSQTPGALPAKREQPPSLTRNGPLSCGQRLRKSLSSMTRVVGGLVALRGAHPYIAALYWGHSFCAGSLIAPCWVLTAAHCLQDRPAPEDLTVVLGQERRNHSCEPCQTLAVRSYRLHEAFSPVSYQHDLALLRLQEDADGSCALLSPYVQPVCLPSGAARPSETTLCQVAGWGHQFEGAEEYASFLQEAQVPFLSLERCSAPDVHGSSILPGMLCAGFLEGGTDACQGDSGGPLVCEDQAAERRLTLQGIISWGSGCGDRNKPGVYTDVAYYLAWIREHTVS
# Experimental: One μg/mL of human FXII (Enzyme Research Labs, #HFXII 1212) was coated on the ELISA plate at 4° C. overnight. The coated plate was blocked with 2% BSA in phosphate buffered saline (PBS) at room temperature for one hour and then washed three times with PBS. All antibodies to be tested (PP13892-PP13901 or human Fc isotype control) were diluted with sample diluent in an 11 point, 5-fold, serial dilution starting at 10 μg/mL. Each sample was run in duplicate. Each concentration was incubated on the coated plate for one hour at room temperature and then washed three times with PBS. Bound antibody was detected with goat-anti-human IgG-HRP and washed six times with PBS. TMB substrate was added to each well and the reaction was stopped with 1M HCl. Absorbance was read at 450 nm.
# EC₅₀ for the concentration response curve was calculated by plotting the OD measured at 450 nm against the logarithm of antibody concentration and the EC₅₀ was calculated by nonlinear regression analysis.
# [2] = biological target: T1, human blood protein factor XII (FXII); assay: BLI (Octet RED96), antibody on anti-human Fc biosensors, antigen in solution, 1:1 fit
# Experimental: Multi-concentration kinetic experiments were performed on the Octet RED96 system (ForteBio). Anti-human Fc biosensors (ForteBio) were hydrated in sample diluent (0.1% BSA in PBS and 0.02% Tween 20) and preconditioned in pH 1.9 Glycine. Antigen was diluted by a 7-point, 3-fold serial dilution starting at 200 nM with sample diluent. Antibodies were diluted to 1μg/ml with sample diluent and then immobilized onto anti-human Fc biosensors. After baselines were established for 30 seconds in sample diluent, the biosensors were moved to wells containing serially diluted antigen to measure the association and dissociation. […] The binding affinities were characterized by fitting the kinetic sensorgrams to a monovalent binding model (1:1 binding).
binder,measurement,setting,value
B1,EC50,[1],9.04 ng/mL
same,Kd,[2],0.24 nM
same,koff,[2],0.00011 s⁻¹
same,kon,[2],460000 M⁻¹ s⁻¹
B2,EC50,[1],9.12 ng/mL
same,Kd,[2],0.3 nM
same,koff,[2],0.00016 s⁻¹
same,kon,[2],530000 M⁻¹ s⁻¹
B3,EC50,[1],8.22 ng/mL
same,Kd,[2],0.3 nM
same,koff,[2],0.00016 s⁻¹
same,kon,[2],530000 M⁻¹ s⁻¹
B4,EC50,[1],9.02 ng/mL
same,Kd,[2],0.41 nM
same,koff,[2],0.0002 s⁻¹
same,kon,[2],500000 M⁻¹ s⁻¹
B5,EC50,[1],8.24 ng/mL
same,Kd,[2],0.44 nM
same,koff,[2],0.00022 s⁻¹
same,kon,[2],500000 M⁻¹ s⁻¹
B6,EC50,[1],8.78 ng/mL
same,Kd,[2],0.15 nM
same,koff,[2],9e-05 s⁻¹
same,kon,[2],620000 M⁻¹ s⁻¹
B7,EC50,[1],8.09 ng/mL
same,Kd,[2],0.31 nM
same,koff,[2],0.00016 s⁻¹
same,kon,[2],500000 M⁻¹ s⁻¹
B8,EC50,[1],8.48 ng/mL
same,Kd,[2],0.27 nM
same,koff,[2],0.00015 s⁻¹
same,kon,[2],560000 M⁻¹ s⁻¹
B9,EC50,[1],7.69 ng/mL
same,Kd,[2],0.32 nM
same,koff,[2],0.00019 s⁻¹
same,kon,[2],580000 M⁻¹ s⁻¹
B10,EC50,[1],9.47 ng/mL
same,Kd,[2],0.35 nM
same,koff,[2],0.00018 s⁻¹
same,kon,[2],530000 M⁻¹ s⁻¹
